Results from paper doi:10.1101/2023.07.04.547698 (bioRxiv, 2023).
Where a chain is given by its changes, count along the chain named.

B1: H2.3 (antibody, V domains shown)
VH: QVQLQQSGPGLVKPSQTLSLTCAISGDSVSSHSASWNWIRQSPSRGLEWLGRTYYRGKWKTDYAVSVKSRIIINPDTSKNQFSLQLDSVTPEDTAVYFCTRATRGASDYWGQGTLVTVSS
VL: not shown
B2: H2.4 (antibody, V domains shown)
VH: B1 VH with G57S, K60H, T61N, V65A, S69G
VL: not shown
B3: ATA1 (scFv, V domains shown)
VH: QVQLQQSGPGLLKPSETLSLTCVISGDSVSSNSATWNWIRQSPSRGLEWLGRTYFRSKWYNDYAVSVKSRITINPDTSKNQFSLQLNSATPEDTAVYYCARQMDEGVGFDFWGQGTLVTVSS
VL: EIVLTQSPATLSLSPGERATLSCRASQSVSSYLAWYQQKPGQAPRLLIYDASNRATGIPARFSGSGSGTDFTLTISSLEPEDFAVYYCQQRSNWPPTFGQGTRLEIK
B4: ATA1.458.3 (scFv, V domains shown)
VH: B3 VH with S31T, S33D, A34V, S57R, V65R
VL: B3 VL with S92H
B5: ATA1.459.3 (scFv, V domains shown)
VH: B3 VH with A34V, S57R, K58R, E105K
VL: B3 VL with S92H
B6: ATA1.458.5 (scFv, V domains shown)
VH: B3 VH with S33F, A34V, S57R
VL: B3 VL with S92H, N93S

Legend:
[1] = target: human α-synuclein fibrils (Homo sapiens (Human)., UniProt P37840); experiment: flow cytometry on fibril-coated beads, competition with monomer
[2] = target: T1, human tau fibrils (HT40, 2N4R) (Homo sapiens, UniProt P10636-8); experiment: flow cytometry on fibril-coated beads
[3] = target: T1, human tau fibrils (HT40, 2N4R); experiment: flow cytometry on fibril-coated beads, competition with monomer
human 0N3R tau fibrils = human 0N3R tau fibrils (Homo sapiens, UniProt P10636-2); experiment: far-Western, overlay or dot blot

| Binder | binding result [1] | binding result [3] | other results |
| --- | --- | --- | --- |
| B1 | binds | – | – |
| B2 | binds | – | – |
| B3 | – | – | EC50 [2]: 6.3 nM |
| B4 | – | binds | – |
| B5 | – | – | binding result (human 0N3R tau fibrils): binds |
| B6 | – | binds | – |
